Experimental data published in article PMC5707411 (2017).

Tests used:
[1] = molecular target: prefusion-stabilized RSV F strain A2 (DS-Cav1); test: SPR
[2] = molecular target: prefusion-stabilized RSV F strain A2 (DS-Cav1); test: SPR; remark: listed apart in the source

B1: 5C4 Fab (Fab, V domains shown)
VH: EVQLQQSGAELVKPGASVKLSCTASGFNIKDTFFHWVKQRPEQGLEWIGRIDPADGHTKYDPKFQGKATITADTSSNTAFLQLSSLTSVDTAVYYCATTITAVVPTPYNAMDYWGQGTSVTVSS
VL: DIVLTQSPASLAVSLGQRTTISCRASESVDSFDNSFIHWYQQKPGQPPKLLIFLASSLESGVPARFSGSGSRTDFTLTIDPVEADDAATYYCQQSNEDPFTFGSGTKLEIK
B1 was tested, and the koff [1] was 0.00454 s⁻¹ and the Kd [2] was 25.7 nM.
